Assay results reported in US20110086089A1 (UNIVERSITY HEALTH NETWORK, published 2011).

Biological target: T1, wt.CK2-alpha-prime immobilized on GST-beads (UniProt P19784 1-350)
T1 construct: also called GST-CK2-alpha-prime; recombinant CK2-alpha-prime; not shown: N-terminal GST tag of pGEX-2lambdaT
Experiment: GST pull-down of in vitro-translated His-tagged p27 mutants on GST-CK2-alpha-prime, anti-His immunoblot

T1 sequence (P19784 whole entry): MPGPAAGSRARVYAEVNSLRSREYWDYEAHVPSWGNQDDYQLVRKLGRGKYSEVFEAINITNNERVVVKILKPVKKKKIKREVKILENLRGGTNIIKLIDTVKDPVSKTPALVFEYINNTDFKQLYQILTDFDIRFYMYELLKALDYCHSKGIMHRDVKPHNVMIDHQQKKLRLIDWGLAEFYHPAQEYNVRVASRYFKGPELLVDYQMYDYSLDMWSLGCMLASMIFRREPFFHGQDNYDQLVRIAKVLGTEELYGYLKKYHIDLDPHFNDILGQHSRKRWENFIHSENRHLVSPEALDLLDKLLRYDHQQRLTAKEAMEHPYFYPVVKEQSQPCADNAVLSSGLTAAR

binding result: no binding
B1: p27deltaC (p27.1-86), in vitro-translated His-tagged truncation mutant of p27 (other)
chain: MSNVRVSNGSPSLERMDARQADHPKPSACRNLFGPVDHEELTRDLEKHCRDMEEASQRKWNFDFQNHKPLEGKYEWQEVEKGSLPE
notes: also called p27ΔC; not shown: N-terminal His-tag of pEXP2
